# Results: US20180022808A1
# Target: recombinant Phl p 2 (Biomay AG) (UniProt P43214)
# Assay: flow cytometry scatter plot on 16HBE14o- cells pre-incubated with 1 µg of the conjugate at ratio 1:0.25, then 1 µg Phl p 2, rabbit anti-Phl p 2 (FIG. 3 C)
# Sequence of UniProt P43214 (P43214 27-122 limits assumed): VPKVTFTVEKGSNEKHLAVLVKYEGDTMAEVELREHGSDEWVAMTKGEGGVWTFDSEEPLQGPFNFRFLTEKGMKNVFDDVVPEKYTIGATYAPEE
substance,measurement,value
P2/ICAM1 bi-specific antibody conjugate (streptavidin-conjugated Phl p 2-specific human IgG1 coupled to biotin-labeled ICAM1-specific mouse IgG1) (from UniProt P22629 37-163) (bispecific antibody),percent of cells with Phl p 2 bound to their cell surface,50%
